{"source": "paper PMC7528652", "about": "“Xrn1p acts at multiple steps in the budding-yeast RNAi pathway to enhance the efficiency of silencing”", "binders": {"B1": {"name": "miR-20a siRNA duplex (dsRNA)", "RNA 1": "UAAAGUGCUUAUAGUGCAGGUAG", "RNA 2": "ACCUGCACUAUAAGCACUUUAAG"}}, "biological_target": "T1, Ago1p (WT) (Naumovozyma castellii, UniProt D5SHI8 2-1299)", "T1 sequence": "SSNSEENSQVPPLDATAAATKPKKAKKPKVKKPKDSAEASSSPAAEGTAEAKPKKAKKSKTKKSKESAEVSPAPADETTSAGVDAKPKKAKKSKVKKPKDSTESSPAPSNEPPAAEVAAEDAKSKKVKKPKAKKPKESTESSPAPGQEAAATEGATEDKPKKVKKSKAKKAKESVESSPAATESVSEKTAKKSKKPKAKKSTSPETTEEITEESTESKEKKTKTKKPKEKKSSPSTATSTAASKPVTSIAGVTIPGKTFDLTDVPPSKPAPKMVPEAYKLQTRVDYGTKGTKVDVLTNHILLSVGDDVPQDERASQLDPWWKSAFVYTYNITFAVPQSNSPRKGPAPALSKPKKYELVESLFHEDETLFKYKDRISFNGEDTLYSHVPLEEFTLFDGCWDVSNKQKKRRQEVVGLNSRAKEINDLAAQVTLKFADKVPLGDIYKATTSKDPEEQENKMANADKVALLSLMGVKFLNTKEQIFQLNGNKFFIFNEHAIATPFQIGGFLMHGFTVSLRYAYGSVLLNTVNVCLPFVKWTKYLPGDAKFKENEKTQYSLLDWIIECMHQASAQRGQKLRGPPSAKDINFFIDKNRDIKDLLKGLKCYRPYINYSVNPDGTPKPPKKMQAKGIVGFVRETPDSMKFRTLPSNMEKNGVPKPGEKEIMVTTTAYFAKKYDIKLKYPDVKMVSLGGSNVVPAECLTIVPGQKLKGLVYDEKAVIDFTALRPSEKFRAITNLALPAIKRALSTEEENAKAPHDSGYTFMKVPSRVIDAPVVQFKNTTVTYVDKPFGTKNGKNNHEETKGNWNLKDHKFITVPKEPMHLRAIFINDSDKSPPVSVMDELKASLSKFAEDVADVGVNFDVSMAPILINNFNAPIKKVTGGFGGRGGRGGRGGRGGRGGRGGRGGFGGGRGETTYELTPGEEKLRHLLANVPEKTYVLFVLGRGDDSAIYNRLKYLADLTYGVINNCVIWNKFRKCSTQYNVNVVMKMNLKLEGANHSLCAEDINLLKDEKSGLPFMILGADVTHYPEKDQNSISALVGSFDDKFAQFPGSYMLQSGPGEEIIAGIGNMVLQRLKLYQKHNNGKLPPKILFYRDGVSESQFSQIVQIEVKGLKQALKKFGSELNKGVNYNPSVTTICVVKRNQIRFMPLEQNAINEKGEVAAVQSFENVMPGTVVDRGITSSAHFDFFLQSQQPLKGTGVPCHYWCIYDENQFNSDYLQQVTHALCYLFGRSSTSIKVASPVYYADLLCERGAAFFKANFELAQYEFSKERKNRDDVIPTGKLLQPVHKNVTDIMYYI", "test": "filter binding (nitrocellulose-nylon); preincubated with 200 nM WT Xrn1p: bound siRNA enhanced; 50 mM Hepes pH 7.6, 300 mM potassium glutamate, 10 mM NaCl, 5 mM Mg acetate, 1 mM EGTA, 1 mM EDTA, 10% glycerol, 0.01% NP-40, 5 mM DTT, 30 C", "conditions": "protein: recombinant; tags: N-terminal 3xFLAG-SUMO-TEV in expression construct; tag state after purification not in material; label: 32P 5' end of guide strand (S68); 21 bp, 2 nt 3' overhangs on both strands"}
{"binder": "B1", "values": [{"measurement": "binding result", "result": "binds"}]}
